Literature values in paper PMC6232131.

Biological target: fibrinogen beta (Homo sapiens) (UniProt P02675)
Sequence of UniProt P02675 (P02675 45-491): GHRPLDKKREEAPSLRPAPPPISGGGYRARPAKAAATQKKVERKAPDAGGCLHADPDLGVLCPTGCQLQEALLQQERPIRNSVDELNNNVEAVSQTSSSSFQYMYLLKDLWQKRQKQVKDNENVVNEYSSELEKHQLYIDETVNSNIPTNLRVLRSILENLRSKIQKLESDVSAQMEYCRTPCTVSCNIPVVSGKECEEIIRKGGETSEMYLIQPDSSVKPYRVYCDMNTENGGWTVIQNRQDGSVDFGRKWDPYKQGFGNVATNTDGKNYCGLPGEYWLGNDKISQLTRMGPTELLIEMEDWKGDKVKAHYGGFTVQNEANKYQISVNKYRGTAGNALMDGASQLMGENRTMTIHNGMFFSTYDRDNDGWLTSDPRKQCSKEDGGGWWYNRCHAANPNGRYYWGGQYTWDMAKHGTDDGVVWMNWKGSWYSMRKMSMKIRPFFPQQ

In the case of SdrG N2N3 (from UniProt Q9KI13), the Kd is given as 400 nM.
